These results are taken from publication PMC5906480, “Tau Antibody Structure Reveals a Molecular Switch Defining a Pathological Conformation of the Tau Protein” (Scientific Reports, 2018).

“Also recorded” adds a separate entry of the source.

Experiment [1] concerns non-phosphorylated peptide. In words: ELISA, non-phosphorylated peptide. Type of experiment: binding. The conditions noted are these: plate coated with peptide 2 μg/mL; C5.2 IgG 8 μg/mL–0.05 ng/mL, 1 h room temperature; 405 nm. Here is the method:
Immulon 4 HBX (extra high-binding) 96-well microtiter plates (Thermo Scientific) were coated with the same peptide used for crystallization diluted to 2 μg/mL in phosphate-buffered saline (PBS) and left overnight at 4 °C (Table 1). Plates were then washed three times in PBS-T (PBS containing 0.05% Tween-20) and blocked in 5% non-fat milk and 3% bovine serum albumin in PBS for 2 hours at room temperature. Plates were subsequently washed 3 times in PBS-T before C5.2 was serially diluted (8 μg/mL–0.05 ng/mL) in PBS and incubated for 1 hour at room temperature. Then, alkaline phosphatase-conjugated goat anti-mouse IgG (Southern Biotech) was diluted 1:2000 in PBS and incubated for 30 minutes at room temperature. Finally, bound IgG was analyzed by addition of p-nitrophenyl phosphate substrate (Thermo Scientific) and measurement at 405 nm on a VersaMax Microplate Reader.
In order to evaluate the ability of C5.2 to exclusively target the phosphorylated epitope, we performed an enzyme-linked immunosorbent assay (ELISA). The peptides used in the assay are the same peptides used for crystallization and diluted to a concentration of 2 μg/mL (Table 1). Binding curves were generated from ELISA data by maintaining plate-bound peptide concentrations and serially diluting C5.2 IgG (Fig. 1c).
(In general: ELISA stands for enzyme-linked immunosorbent assay.)

Experiment [2] has as its system normal tau in brain sections from healthy control subjects (prefrontal cortex). In words: Immunohistochemistry, healthy control brain sections. The conditions noted are these: C5.2 at 0.1 to 1 μg/mL, overnight 4 °C, paraffin sections. Type of experiment: binding, human. Here is the method: Paraffin sections of 4 μm thickness were prepared from blocks of PFA-fixed prefrontal cortex from AD donors and non-demented controls obtained from Tissue Solutions (Glasgow, UK). The sections were deparaffinised, rehydrated and subjected to antigen retrieval by boiling in 10 mM citrate buffer pH 6 for 5 min. Endogenous peroxidase was quenched for 10 min with 1% H2O2 in PBS. Sections were then incubated 20 min in blocking buffer followed by overnight incubation in a humidified chamber at 4 °C with primary antibody at 0.1 to 1 μg/mL in incubation buffer. Between each incubation step, the sections were washed 3 × 10 min in wash buffer. Subsequently, the sections were incubated at room temperature in the following solutions; 60 min with a biotinylated secondary Ab diluted 1:200 in wash buffer; 60 min in ABC; 20 min in DAB. Finally, the sections were counterstained with hematoxylin and coverslipped.

B1: C5.2: novel mouse monoclonal antibody that targets the pS396 tau epitope region (antibody, V domains shown)
VH: QVQLQQSDAELVKPGASVKISCKASGYTFTDRTIHWVKQRPEQGLEWIGYIYPGDDSTKYNDMFKAKATLTADKSSNTAYMQLNSLTSDDSAVYFCARRGTMDYWGQGTSVTVSS
VL: DVQMIQSPSSLSASLGDIVTMTCQASQDTSINLNWFQQKPGKAPKLLIYGASNLEDGVPSRFSGSRYGTDFTLTISSLEDEDMATYFCLQHTYLPFTFGSGTKLEIK
For the molecule B1, in experiment [1], the “Recognition of peptide (ELISA)” value is reported as “lack of recognition; also recorded: does not bind”. In addition, in experiment [2], the “Binding to normal tau in brain sections” value was “does not bind to normal tau”.
